*1 amine or outer side, *2 acyl side, *3 side chain or, on linkers, in order; H or OH if unused. Where a SMILES comes first, the peptide text is derived from it. Bridges are numbered along the chain shown (N, C = ends). Side-chain parts run from the residue outwards. [ ]: non-standard residue; d: D form. The star is where a group is joined. X1 = O=C([C@@H](Cc1ccccc1)N(c1c(NCCCCCN(O)[*:3])c(=O)c1=O)[*:1])[*:2]; X2 = CC(=O)N(O)CCCCCNC(=O)CCC(=O)N(O)CCCCCN*; Thr(ol) = C[C@@H](O)[C@H](N)CO; Suc = O=C(CCC(=O)[*:2])[*:1]
Assays:
Design in all cases: species or system mice
in vivo [1] = details: female, Balb/c nude, mouse, iv, total radioactivity
Experimental: (§1) PET-CT imaging and Biodistribution of Octreotate/tide Tracers. Female Balb/c nude mice (age 9 weeks) were inoculated subcutaneously on the right flank with 3×10^6 AR42J cells in PBS:Matrigel (1:1). Mice were weighed and tumours measured twice weekly using electronic callipers. Tumour volume (mm^3) was calculated as length^2×width/2. 12 mice were assigned for imaging and biodistribution studies (tumour volumes: 170-550 mm^3). DFOSqTIDE (2.5 MBq) and DFOSqTATE (2.2 MBq) were administered intravenously by tail vein injection to mice on. At 1, 2, 4 and 18 hr post injection three mice were anaesthetised using isoflurane and placed on the imaging bed of a G8 PET/CT scanner (Perkin Elmer). A CT scan was performed which was immediately followed by a 10 min static PET scan. PET images were reconstructed using the maximal likelihood and expectation maximization (ML-EM) algorithm. PET images were analysed using VivoQuant (Invicro) and Tumour SUVmax, Tumour SUVmax/background average (TBR) and Tumour SUVmax/liver average (TLR) determined. After imaging at 18 hr mice were euthanised and selected tissues were excised, weighed and counted using a Capintec (Captus 4000e) gamma counter. A separate cohort of 3 mice was harvested at 1 hr post injection for biodistribution analysis. The data was analysed using GraphPad Prism 7 and differences between tracers analysed using a t-test.
(§2) AR42J (rat pancreatic cancer cell line) tumour bearing Balb/c nude mice as described above were injected intravenously via tail vein injection with ^89ZrDFOSqTATE or ^89ZrDFOSqTIDE (2-3 MBq). At 1, 2, 4 and 18 h post-injection the mice were anaesthetised with isoflurane and imaged over 10 min. At 1 hr after injection of DFOSqTIDE and DFOSqTATE, uptake into kidney, tumour and liver was observed. Representative PET images of mice injected with DFOSqTIDE and DFOSqTATE are shown in FIG. 12 and quantitation of the tumour SUVmax for each radiotracer is summarised in FIG. 13a.
(§3) ^68GaDFOSq-TIDE and ^68GaDFOSq-TATE tracers were injected (2-3 MBq, 1 μg, 0.5 nmol) intravenously via tail vein to AR42J (rat pancreatic cancer cell line) tumour bearing Balb/c nude mice. PET images were acquired at 1 and 2 h post-injection (FIGS. 15a and b). […] Quantification of the uptake in the images using Standard Uptake Value (SUVmax=radioactivity in a tissue/injected activity/BW) confirms the higher uptake for ^68GaDFOSq-TATE (1 h; SUVmax 1.8±0.2, compared to 1.21±0.20, FIG. 15c). The higher tumor uptake of ^68GaDFOSqTATE was also associated with a higher degree of tumor retention at 2 h post injection with only a 5% reduction in SUVmax whereas the tumor SUVmax for ^68GaDFOSqTIDE reduced by 30% ^68GaDFOSqTATE at 2 h post injection. Both tracers clear rapidly from the blood and there is low uptake in bone consistent with stable gallium-68 complexes as well as low uptake in muscle. Both tracers have significant uptake in the kidneys and bladder.

[2] = tested on: AR42J (rat pancreatic cancer cell line) tumour; assay: in vivo; details: mouse
Experimental: as §1, §2, §3

in vivo [3] = details: female, Balb/c nude, mouse, iv, total radioactivity; remark: listed apart in the source
Experimental: as §1, with “t-test. The high tumor uptake was confirmed by an ex vivo biodistribution study in the same mouse model where mice were injected with either ^68GaDFOSq-TIDE and ^68GaDFOSq-TATE (2-3 MBq, 1 μg, 0.5 nmol) and then euthanised at either 1 h or 2 h after administration. The amount of injected activity per gram of tissue (% IA/g) in the tumor and major organs was quantified (FIG. 16).” for “t-test.”

[4] = tested on: AR42J (rat pancreatic cancer cell line) tumour; assay: in vivo; details: female, Balb/c nude, mouse, iv
Experimental: as §1, with “t-test. The high tumor uptake was confirmed by an ex vivo biodistribution study in the same mouse model where mice were injected with either ^68GaDFOSq-TIDE and ^68GaDFOSq-TATE (2-3 MBq, 1 μg, 0.5 nmol) and then euthanised at either 1 h or 2 h after administration. The amount of injected activity per gram of tissue (% IA/g) in the tumor and major organs was quantified (FIG. 16).” for “t-test.”

[5] = Tumour uptake % IA/g 1 h post injection

Row | SMILES | SUV at 1 h (in vivo [1]) | Reduction in tumor SUVmax at 2 h post injection [2] | tissue uptake at 2 h (in vivo [3]; Tumor uptake % ID/g 2 h post injection) | tissue uptake at 1 h (in vivo [3]; [5]) | tissue uptake at 1 h (in vivo [3]; Uptake in the kidneys) | tissue uptake at 2 h (in vivo [3]; Tumour uptake % IA/g 2 h post injection) | Tumour SUVmax 1 h pi [2] | Tumour SUVmax 18 h pi [2] | Tumour SUVmax Clearance % [2] | Tumour Uptake % ID/g 1 h pi [4] | Tumour Uptake % ID/g 18 h pi [4] | tissue uptake at 1 h (in vivo [3]; Tumour Uptake % ID/g 1 h pi) | tissue uptake at 18 h (in vivo [3]; Tumour Uptake % ID/g 18 h pi)
1 | CC(=O)N(O)CCCCCNC(=O)CCC(=O)N(O)CCCCCNC(=O)CCC(=O)N(O)CCCCCNc1c(N[C@H](Cc2ccccc2)C(=O)N[C@H]2CSSC[C@@H](C(=O)N[C@H](C(=O)O)[C@@H](C)O)NC(=O)[C@H]([C@@H](C)O)NC(=O)[C@H](CCCCN)NC(=O)[C@@H](Cc3c[nH]c4ccccc34)NC(=O)[C@H](Cc3ccc(O)cc3)NC2=O)c(=O)c1=O (68Ga complex, metal not drawn) [^68GaDFOSqTATE] (H-[X1]([Suc-X2])CY[dW]KTCT-OH; disulfide 2-7) | 1.8 ± 0.2 SUV | 5% | 9.22 ± 0.92 %ID/g | 9.8 ± 2.33 %ID/g | 16 ± 3.27 %ID/g |  |  |  |  |  |  |  | 
2 | CC(=O)N(O)CCCCCNC(=O)CCC(=O)N(O)CCCCCNC(=O)CCC(=O)N(O)CCCCCNc1c(N[C@H](Cc2ccccc2)C(=O)N[C@H]2CSSC[C@@H](C(=O)N[C@H](CO)[C@@H](C)O)NC(=O)[C@H]([C@@H](C)O)NC(=O)[C@H](CCCCN)NC(=O)[C@@H](Cc3c[nH]c4ccccc34)NC(=O)[C@H](Cc3ccc(O)cc3)NC2=O)c(=O)c1=O (68Ga complex, metal not drawn) [^68GaDFOSqTIDE] (H-[X1]([Suc-X2])CY[dW]KTC[Thr(ol)]; disulfide 2-7) | 1.21 ± 0.2 SUV | 30% |  | 8.81 ± 1.03 %ID/g | 37.6 ± 3.5 %ID/g | 4.4 ± 1.1 %ID/g |  |  |  |  |  |  | 
3 | CC(=O)N(O)CCCCCNC(=O)CCC(=O)N(O)CCCCCNC(=O)CCC(=O)N(O)CCCCCNc1c(N[C@H](Cc2ccccc2)C(=O)N[C@H]2CSSC[C@@H](C(=O)N[C@H](C(=O)O)[C@@H](C)O)NC(=O)[C@H]([C@@H](C)O)NC(=O)[C@H](CCCCN)NC(=O)[C@@H](Cc3c[nH]c4ccccc34)NC(=O)[C@H](Cc3ccc(O)cc3)NC2=O)c(=O)c1=O (89Zr complex, metal not drawn) [^89ZrDFOSqTATE] (H-[X1]([Suc-X2])CY[dW]KTCT-OH; disulfide 2-7) |  |  |  |  |  |  | 3.1 ± 0.2 | 1.3 ± 0.15 | 58% | 10.4 ± 0.5 % ID/g | 4.9 ± 0.8 % ID/g |  | 
4 | CC(=O)N(O)CCCCCNC(=O)CCC(=O)N(O)CCCCCNC(=O)CCC(=O)N(O)CCCCCNc1c(N[C@H](Cc2ccccc2)C(=O)N[C@H]2CSSC[C@@H](C(=O)N[C@H](CO)[C@@H](C)O)NC(=O)[C@H]([C@@H](C)O)NC(=O)[C@H](CCCCN)NC(=O)[C@@H](Cc3c[nH]c4ccccc34)NC(=O)[C@H](Cc3ccc(O)cc3)NC2=O)c(=O)c1=O (89Zr complex, metal not drawn) [^89ZrDFOSqTIDE] (H-[X1]([Suc-X2])CY[dW]KTC[Thr(ol)]; disulfide 2-7) |  |  |  |  |  |  | 1.1 ± 0.07 | 0.5 ± 0.01 | 55% | 3.4 ± 0.4 % ID/g | 1.7 ± 0.1 % ID/g |  | 
5 | CC(=O)N(O)CCCCCNC(=O)CCC(=O)N(O)CCCCCNC(=O)CCC(=O)N(O)CCCCCNc1c(N[C@H](Cc2ccccc2)C(=O)N[C@H]2CSSC[C@@H](C(=O)N[C@H](CO)[C@@H](C)O)NC(=O)[C@H]([C@@H](C)O)NC(=O)[C@H](CCCCN)NC(=O)[C@@H](Cc3c[nH]c4ccccc34)NC(=O)[C@H](Cc3ccc(O)cc3)NC2=O)c(=O)c1=O [DFOSqTIDE] (H-[X1]([Suc-X2])CY[dW]KTC[Thr(ol)]; disulfide 2-7) |  |  |  |  |  |  |  |  | 55% |  | 1.5±0.1 % ID/g | 3.4 ± 0.4 %ID/g | 1.7 ± 0.1 %ID/g
